Patent US20250064979A1

Molecular target: Gag-P3-pol (P3 coiled-coil peptide fused to MMLV Gag-pol) (Moloney murine leukemia virus) (UniProt P03332)
Assay: cell-based or functional assay

Q: “Gag-PE fusion with P4 peptide fused to its C-terminus (construct 1 of FIG. 44A) (from UniProt P03332 1-538)” was tested. Which editing efficiency of PE VLPs did it give?
A: 2 fold
